According to patent publication US20030064061A1, “Bcr-Abl oligomerization domain polypeptides and uses therefor” (Whitehead Institute for Biomedical Research, priority 2001, published 2003):
Numbering of substitutions follows the chain as printed.

Tests used:
[1] = Solubility in physiological buffers; format: physicochemical
[2] = Circular dichroism thermal denaturation; format: physicochemical; settings: stable α-helical structure, PBS pH 7.4, heated from 0-98° C.
Description: Circular dichroism experiments were performed on an Aviv 62A DS circular dichroism spectrometer. Measurements from […] were performed in a 10 μM solution of protein sample in PBS (50 mM Na phosphate, 150 mM NaCl, pH 7.4) in a 1-mm path-length cuvette. Thermal denaturation was performed in a 10 mm path-length cuvette and samples were heated from 0-98° C., with equilibration times of 2 minutes and an averaging time of 1 minute. Protein concentrations were determined by absorbance at 280 nm in 20 mM phosphate-buffered 6M guanidine-hydrochloride (pH 6.5) (H. Edelhoch, Biochemistry 6, 1948-54 (1967)).

[3] = molecular target: T1, Bcr-Abl (Homo sapiens, UniProt P00519+P11274); settings: literature reports (Guo 1998; Wu 1999); cited from earlier work
T1 construct: c-Abl portion (ABL1, fusion partner)
T1 sequence (P11274 1-426 limits assumed): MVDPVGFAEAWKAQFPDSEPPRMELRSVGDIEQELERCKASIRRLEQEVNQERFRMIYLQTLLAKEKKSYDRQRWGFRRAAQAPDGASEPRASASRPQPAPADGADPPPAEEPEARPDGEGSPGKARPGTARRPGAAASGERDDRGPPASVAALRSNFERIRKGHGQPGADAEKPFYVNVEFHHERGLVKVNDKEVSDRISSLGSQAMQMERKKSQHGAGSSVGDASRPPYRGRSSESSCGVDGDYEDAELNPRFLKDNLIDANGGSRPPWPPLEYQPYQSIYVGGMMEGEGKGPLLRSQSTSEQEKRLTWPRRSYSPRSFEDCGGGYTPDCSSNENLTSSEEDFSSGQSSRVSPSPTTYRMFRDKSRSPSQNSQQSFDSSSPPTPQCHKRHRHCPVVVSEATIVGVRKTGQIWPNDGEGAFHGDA

[4] = test system: Bcr-Abl transformation of Rat-1 fibroblasts; assay: Rat-1 focus-formation assay; format: cell-based; settings: Rat-1 fibroblasts cotransfected with MIG-P210 and increasing doses of plasmid B74; foci counted after 3 weeks
Description: FIG. 5 is a graphic representation of results of a Rat-1 focus-formation assay. Data shown are the average of three dishes and are representative of four independent experiments. Error bars indicate the standard deviation of foci numbers between the experiments.
Whether the Bcr-Abl oligomerization domain inhibits full-length Bcr-Abl oligomerization in a dominant-negative manner was assessed. […] The total number of transformed foci was quantified after 3 weeks. Transected cultures were stained with 0.4% crystal violet to better visualize transformed foci.
For expression in mammalian cells, Bcr1-74 fragments were PCR amplified from pMBP/Bcr1-74 (with the optimal E. coli codons) as mentioned above, and inserted into the retroviral expression vector pMX-IRES-GFP (X. Liu et al., Anal Biochem 280, 20-28 (2000)) using BamHI and NotI sites. The resulting plasmid was denoted p74-IES-GFP (B74). Although it has been reported that the Bcr oligomerization domain as contained in residues 1-71 (SEQ ID NO: 19; SEQ ID NO: 20) of the Bcr protein cannot be stably expressed in mammalian cells (C. L. Sawyers, N Engl J Med 340, 1330-40 (1999)), a fair amount of Bcr1-74 (SEQ ID NO: 7) protein was detected by Western blotting when B74 was expressed in vivo. It is possible that use of E. coli-optimized codons improved expression in this domain. […] The total number of transformed foci was counted after 3 weeks.

[5] = molecular target: Bcr1-72C38A (Bcr-Abl oligomerization domain, residues 1-72 of human Bcr, Cys38 mutated to Ala), monomer chain (human); assay: X-ray crystal structure, buried surface
[6] = molecular target: Bcr1-72C38A (Bcr-Abl oligomerization domain, residues 1-72 of human Bcr, Cys38 mutated to Ala), monomer chain (human); assay: X-ray crystal structure, interface analysis
[7] = molecular target: Bcr1-72C38A dimer (domain-swapped antiparallel coiled-coil dimer seen in the crystal) (human); assay: X-ray crystal structure, buried surface

## Ac-DIEQELERCKASIRRLEQEVNQERFRMIYLQTLLAK-NH2 [Bcr30-65]
[1]
  solubility in physiological buffers: poor solubility
[2]
  midpoint of thermal denaturation (Tm): 60 °C

B1: full-length Bcr: Full-length human Bcr protein, 1271 amino acids (literature) (protein, UniProt P11274 1-1271, looked up)
chain: MVDPVGFAEAWKAQFPDSEPPRMELRSVGDIEQELERCKASIRRLEQEVNQERFRMIYLQTLLAKEKKSYDRQRWGFRRAAQAPDGASEPRASASRPQPAPADGADPPPAEEPEARPDGEGSPGKARPGTARRPGAAASGERDDRGPPASVAALRSNFERIRKGHGQPGADAEKPFYVNVEFHHERGLVKVNDKEVSDRISSLGSQAMQMERKKSQHGAGSSVGDASRPPYRGRSSESSCGVDGDYEDAELNPRFLKDNLIDANGGSRPPWPPLEYQPYQSIYVGGMMEGEGKGPLLRSQSTSEQEKRLTWPRRSYSPRSFEDCGGGYTPDCSSNENLTSSEEDFSSGQSSRVSPSPTTYRMFRDKSRSPSQNSQQSFDSSSPPTPQCHKRHRHCPVVVSEATIVGVRKTGQIWPNDGEGAFHGDADGSFGTPPGYGCAADRAEEQRRHQDGLPYIDDSPSSSPHLSSKGRGSRDALVSGALESTKASELDLEKGLEMRKWVLSGILASEETYLSHLEALLLPMKPLKAAATTSQPVLTSQQIETIFFKVPELYEIHKEFYDGLFPRVQQWSHQQRVGDLFQKLASQLGVYRAFVDNYGVAMEMAEKCCQANAQFAEISENLRARSNKDAKDPTTKNSLETLLYKPVDRVTRSTLVLHDLLKHTPASHPDHPLLQDALRISQNFLSSINEEITPRRQSMTVKKGEHRQLLKDSFMVELVEGARKLRHVFLFTDLLLCTKLKKQSGGKTQQYDCKWYIPLTDLSFQMVDELEAVPNIPLVPDEELDALKIKISQIKNDIQREKRANKGSKATERLKKKLSEQESLLLLMSPSMAFRVHSRNGKSYTFLISSDYERAEWRENIREQQKKCFRSFSLTSVELQMLTNSCVKLQTVHSIPLTINKEDDESPGLYGFLNVIVHSATGFKQSSNLYCTLEVDSFGYFVNKAKTRVYRDTAEPNWNEEFEIELEGSQTLRILCYEKCYNKTKIPKEDGESTDRLMGKGQVQLDPQALQDRDWQRTVIAMNGIEVKLSVKFNSREFSLKRMPSRKQTGVFGVKIAVVTKRERSKVPYIVRQCVEEIERRGMEEVGIYRVSGVATDIQALKAAFDVNNKDVSVMMSEMDVNAIAGTLKLYFRELPEPLFTDEFYPNFAEGIALSDPVAKESCMLNLLLSLPEANLLTFLFLLDHLKRVAEKEAVNKMSLHNLATVFGPTLLRPSEKESKLPANPSQPITMTDSWSLEVMSQVQVLLYFLQLEAIPAPDSKRQSILFSTEV
modifications: full-length
[3]
  Bcr-Abl transformation: inhibit Bcr-Abl transformation

B2: Bcr1-74: Residues 1-74 of human Bcr; expressed in Rat-1 cells from retroviral plasmid B74 (p74-IRES-GFP) (protein, UniProt P11274 1-74, looked up, fragment)
chain: MVDPVGFAEAWKAQFPDSEPPRMELRSVGDIEQELERCKASIRRLEQEVNQERFRMIYLQTLLAKEKKSYDRQR
[4]
  transforming potential of Bcr-Abl (number of transformed foci): inhibited the transforming potential of Bcr-Abl

B3: Bcr1-72C38A (Bcr-Abl oligomerization domain, residues 1-72 of human Bcr, Cys38 mutated to Ala), monomer chain (protein, UniProt P11274 1-72 with C38A, looked up)
chain: MVDPVGFAEAWKAQFPDSEPPRMELRSVGDIEQELERAKASIRRLEQEVNQERFRMIYLQTLLAKEKKSYDR
modifications: oligomerization domain residues 1-72 selenomethionine form also used
[5]
  solvent-accessible surface buried upon dimer formation: 4200 Å^2
[6]
  hydrogen bonds in the dimer interface (hydrogen bonds): 3
  salt bridges in the dimer interface: 7 salt bridges
  van der Waals contacts in the dimer interface (radius cutoff 4 Å): 217 contacts

B4: Bcr1-72: Recombinant wild-type polypeptide, residues 1-72 of the N-terminus of human Bcr (oligomerization domain) (protein, UniProt P11274 1-72, looked up, fragment)
chain: B3 chain with A38C
[2]
  midpoint of thermal denaturation (Tm): 84 °C

B5: Bcr1-72C38A dimer (domain-swapped antiparallel coiled-coil dimer seen in the crystal) (protein, UniProt P11274 1-72 with C38A, looked up)
chain: B3 chain
modifications: oligomerization domain residues 1-72, homodimer
[7]
  solvent-accessible surface buried upon association of two dimers: 3400 Å^2

B6: N-terminal 160 amino acids of Bcr: N-terminal 160 amino acids of Bcr, which contain the oligomerization domain (literature) (protein, UniProt P11274 1-160, looked up, fragment)
chain: MVDPVGFAEAWKAQFPDSEPPRMELRSVGDIEQELERCKASIRRLEQEVNQERFRMIYLQTLLAKEKKSYDRQRWGFRRAAQAPDGASEPRASASRPQPAPADGADPPPAEEPEARPDGEGSPGKARPGTARRPGAAASGERDDRGPPASVAALRSNFER
[3]
  Bcr-Abl transformation: inhibit Bcr-Abl transformation
